Test results published in the DeepSol protein solubility set.

Assay: soluble on expression in E. coli; label from the status in PepcDB or PDB records

Sequence | soluble on expression in E. coli
GHNLSYSVSANLSNYDARITRYDNPEKVFAKSYYPGMKLGEIWGYHVDGLFASDEEAAQYSSQVDLGVVAKNLPQGTWRAGDLKFADLDGDGKISVGEDSALNPGDMKIIGNELPTLQYGFSGSLNYMGFDIYAFFQGTGNHYWYPNGYNYQFWGSFSDPVAGYIPRNFIDQCWSKDNPGAYFPRPLGQSAKNGQLSFVNDRYLQNIRYMRFKNLTIGYSIPGKILSKVSIQQLRVYFTAENLCYWSPIKKHSKYIDPEAAFSRSSNQLNAMYYPWAKTYMFGIDITL | not soluble
GIDPFTMLRPRLCTMKKGPSGYGFNLHSDKSKPGQFIRSVDPDSPAEASGLRAQDRIVEVNGVCMEGKQHGDVVSAIRAGGDETKLLVVDRETDEFFKKCRVIPSQEHLNGPLPVPFTNGEIQKENSREALAEAALESPRPALVRSASSDTSEELNSQDSPPKQDSTAPSSTSSSDPILDFNISLAMAKERAHQKRSSKRAPQMDWSKKNELFSNL | soluble
GINLTPEEKFEVFGDFDPDQYEEEVRERWGNTDAYRQSKEKTASYTKEDWQRIQDEADELTRRFVALMDAGEPADSEGAMDAAEDHRQGIARNHYDCGYEMHTCLGEMYVSDERFTRNIDAAKPGLAAYMRDAILANAVRHTP | soluble
GKNVMVEPHRHEGVFICRGKEDALVTKNLVPGESVYGEKRVSISEGDDKIEYRAWNPFRSKLAAAILGGVDQIHIKPGAKVLYLGAASGTTVSHVSDIVGPDGLVYAVEFSHRSGRDLINLAKKRTNIIPVIEDARHPHKYRMLIAMVDVIFADVAQPDQTRIVALNAHTFLRNGGHFVISIKANCIDSTASAEAVFASEVKKMQQENMKPQEQLTLEPYERDHAVVVGVYRP | soluble
GKRLGIFTHDNPDPDSMSSAYALREIAKQFDVIADILYYGEILHQKNRAMVNLLEIPMIRAPEVDLSHYDAFAIVDSSGPGVNNSIPPDIDISIVIDHHPAEKVVAEFVDLREDVGATATILTEYIKELKITPSKILATALFFGIKSETDEFKRNTRTADFLACAFLYPFVDQDLIEKIESPSI | not soluble
GLGDAGSTPTTSAADGVPSDTSLTGSGGLHLPQQLEQYRGDIMDAAKATGVPPSVIAGQIWAESRGQLNAATTNVNGKADAGLMQVNADTFKSLQQQNPGLLGNDVNDSHTNIMAGALYLRDQNKEFGDMGAALRAYNSGPDKVNKADLSDTGGVGGSSYPADVLNFAKIIESGQGNLPA | not soluble
GLSDRYQRVKKLGSGAYGEVLLCKDKLTGAERAIKIIKKSSVTTTSNSGALLDEVAVLKQLDHPNIMKLYEFFEDKRNYYLVMEVYRGGELFDEIILRQKFSEVDAAVIMKQVLSGTTYLHKHNIVHRDLKPENLLLESKSRDALIKIVDFGLSAHFEVGGKMKERLGTAYYIAPEVLRKKYDEKCDVWSCGVILYILLCGYPPFGGQTDQEILKRVEKGKFSFDPPDWTQVSDEAKQLVKLMLTYEPSKRISAEEALNHPWIVKFCSQKHTDVGKHALTGALGNMKKFQSSQKLAQAAMLFMGSKLTTLEETKELTQIFRQLDNNGDGQLDRKELIEGYRKLMQWKGDTVSDLDSSQIEAEVDHILQSVDFDRNGYIEYSEFVTVCMDKQLLLSRERLLAAFQQFDSDGSGKITNEELGRLFGVTEVDDETWHQVLQECDKNNDGEVDFEEFVEMMQKICDVKVKH | soluble
GMADLTHEFWDRLEDVRSGMLGIKGQGRLIPMSPQTDDDAPGAIWFITAKGTDLAKGVAAGPQPAQFVVSDDGEGLYADLDGTLERSTDREALDEFWSFVADAWFDGGQHDPDVCLLKFTPASGEISITEGGGARFLYEIAKAHLTDETPDMGEQATVTF | soluble
GMAEPKFTSFTTADFINDVDMELFIDAVEKTAPVWVKEMKSRGLLKFSMNRVWNKGEVFRVVMTYEYKDRASFEANIAYLEDTFGKNPVFLQLVTTAKFTTSRCLVVMEV | soluble
GMELQDTIFKRQSVRKFKNQDVSDEDILKMIKAAGAAPSGKNIQNWHFVVIKRRDLMEKIADVITKKQQEILVEMDKVSVDKANRFRKFVKNFTLFYLKAPVLVLVFTKVYNPSGYYELELIDAPKETIDKLFIRNPGMQSLGAAIENFTLSAIELGYGSCWLTSQNYAADEIEAVLEAETGFEKGEYFLGAMLALGVPEDNLKSPSKKPVEEICTFIK | soluble
GMGKGKSAIESQIRMLKLAKEIVEEVASSFPNLEEVYIFGSRARGDYLDTSDIDILFVFKGIKEMNVFDRMYMVSRFIRGNVDYIVLDEGEKDRVKDKVLFWKREKGFVLL | soluble
GMGYTLAEFLAHAIALETEAAERYVELADMMEAHNNLDTATVFRDMARFSTLHGDEIKQRSRALELPKLMSWQYRWKTPPEVGDENDIHYLMTPYHALRYARDNEIRGMEYYKEAAANSADPEVKRLGADFAAEEAEHVVALDKWIEKTPRPSITWSEDADPAQCVD | soluble
GMHVYESDVSWIDDRRTEVSVGDHRIEVDSPPEFGGPEGQLYPETLFPSVLASCLLTTFLEFKDRMGINLKSWNSHVTAELGPSPEKGFKFHRIKIHVKIGVNDEDKEKIPRAMQLAEKYCFISRAIRNNVEEIVDYEFV | soluble
GMIPIVDSRIGAYLDGLLPEADPVVAAMEQIARERNIPIVDRQTGRLLYLLARIKQPQLVVVPGDGLGCASWWFARAISISSRVVMIDPDRDNVEHARRMLHDNGLIDRVELQVGDPLGIAAGQRDIDILFMDCDVFNGADVLERMNRCLAKNALLIAVNALRRGSVAESHEDPETAALREFNHHLSRRRDFFTTIVPVGNGVLLGYRLS | soluble
GMKCNDKLAPFEVFDHVVNKKLSFRHVTMDDVDMLHSWMHEEHVIPYWKLNIPLVDYKKHLQTFLNDDHQTLMVGAINGVPMSYWESYWVKEDIIANYYPFEEHDQGIHLLIGPQEYLGQGLIYPLLLAIMQQKFQEPDTNTIVAEPDRRNKKMIHVFKKCGFQPVKEVELPDKIGLLMKCEQNVFEKRWSDWKMNKF | soluble
GMKDTDETAFLNSLFMDFTSENELELFLKSLDEVWSEDLYSRLSAAGLIRHVISKVWNKEQHRISMVFEYDSKEGYQKCQEIIDKEFGITLKEKLKKFVFKIHNNRGVVVSEFIRST | soluble
GMKNVTKASIDDLDSIVHIDIDVIGNDSRRNYIKHSIDEGRCVIVKEDNSISGFLTYDTNFFDCTFLSLIIVSPTKRRRGYASSLLSYMLSHSPTQKIFSSTNESNESMQKVFNANGFIRSGIVENLDEGDPEIIFYTKKLRA | soluble
GMKTNEVLETIKARRSVRAYDRKQIPADDLNAILEAGAYAPSGMHYETWHFTAVCNTVKLEELNERIKGAFAKSDDKHLRERGHSETYCCYYHAPTLVIVSNEPKQWWAGMDCACAIENMFLAATSLGIASCWINQLGTTCDDPEVRAYLTSLGVPENHKVYGCVALGYKAEGALLKEKTVKAGTITIVE | soluble
GMKVLPVKQYLIMENYNPDTIFNGIVKINSNEKTFDDEILAQIGGALHDIDESWELLLSFANTIRSNWEIKTPAYDIVRLIVKKLPYSSDIKDYIEEGLGNKNITLTMLTVRILVNCFNNENWGVKLLESNQVYKSIFETIDTEFSQASAKQSQNLAIAVSTLIFNYSALVTKGNSDLELLPIVADAINTKYGPLEEYQECEEAAYRLTVAYGNLATVEPTLRQFANSVTWLANIKRSYGNVPRFKDIFDDLS | soluble
GMMFKWPWKADDESGNAEMPWEQALAIPVLAHLSSTEQHKLTQMAARFLQQKRLVALQGLELTPLHQARIAMLFCLPVLELGIEWLDGFHEVLIYPAPFIVDDEWEDDIGLVHNQRVVQSGQSWQQGPVVLNWLDIQDSFDASGFNLVVHEVAHKLDTRNGDRASGVPLIPLREVAGWEHDLHAAMNNIQDEIDLVGESAASIDAYAATDPAECFAVLSEYFFSAPELFAPRFPALWQRFCHFYRQDPLARRRENGLQDEGDRRIVH | soluble
GMNAIRYTKRECKDEKKITEFLNKARTGFLGLSTNDQPYVIPLNFVWHNHAIYFHGASEGRKIKMIEANPEVCFTICEDLGTIVSPVPAHTDTAYMSVIIFGTIEPVSAIEEGTEAMQQMLDKYVPGYYHSPLAASHVEKYRSSLGSRTAIYKISCRERTAKVNEPIESLKFYPGRNVSVDKDSR | soluble
